Data on 1 substance can be found in patent US20040091492A1.

In experiment [1] the target is HLA-A3 on Hmy2.C1R-A3 transfectant cells with the pn2a.A3 peptide (human).
Experiment [2] has as its target HLA-A1 on Hmy2.C1R-A1 transfectant cells with the OD 309 peptide (ornithine decarboxylase 309-317) (human). The experiment in a line: competition with 2.5 µM myc-hβ2m on Hmy2.C1R-A1 cells with OD 309 peptide, 9E10 flow cytometry. A general note: In flow cytometry, cells or beads pass a laser one at a time.
Experiment [3] deals with HLA-A2 on Hmy2.C1R-A2 transfectant cells with the HIV gag 77-85 peptide (human), A*02:0.
Experiment [4] addresses HLA-A3 on Hmy2.C1R-A3 transfectant cells with the pn2a.A3 peptide (human). This is another data set of the same source.
Experiment [5] addresses HLA-A1 on Hmy2.C1R-A1 transfectant cells with the OD 309 peptide (ornithine decarboxylase 309-317) (human). The experiment in a line: HLA stabilization assay, acid-stripped Hmy2.C1R-A1 cells with OD 309 peptide and BB7.5 mAb, flow cytometry.
Experiment [6] deals with HLA-A2 on Hmy2.C1R-A2 target cells pulsed with HTLV-1 TAX 11-19 peptide (human), A*02:0. The experiment can be described thus: cell-based or functional assay.

Turning to “hβ2m S55V (human β2-microglobulin with valine at position 55 of the mature protein) (from UniProt P61769 21-119)”, the figures for the fold better stabilization than wild-type hβ2m in experiment [1] and in experiment [5] were 3 fold and 2 fold, respectively. Besides, the fold better inhibition of myc-hβ2m binding than wild-type hβ2m in experiment [2], in experiment [3] and in experiment [4] was 2.5 fold throughout. Besides, the fold more effective than wild-type hβ2m at enhancing target cell lysis (CTL lysis assay) in experiment [6] came out at 4 fold.
